Reference: patent US20240336900A1, “METHODS AND COMPOSITIONS RELATED TO MODIFIED METHYLTRANSFERASES AND ENGINEERED BIOSENSORS” (BOARD OF REGENTS, THE UNIVERSITY OF TEXAS SYSTEM, priority 2023, published 2024)

B1: Wild-type Nb4OMT: natural norbelladine 4′-O-Methyltransferase from Narcissus pseudonarcissus (protein)
chain: MGASIDDYSLVHKNILHSEDLLKYILETSAYPREHEQLKGLREVTEKHEWSSALVPADEGLFLSMLLKLMNAKRTIEIGVYTGYSLLTTALALPEDGKITAIDVNKSYYEIGLPFIQKAGVEHKINFIESEALPVLDQMLEEMKEEDLYDYAFVDADKSNYANYHERLVKLVRIGGAILYDNTLWYGSVAYPEYPGLHPEEEVARLSFRNLNTFLAADPRVEISQVSIGDGVTICRRLY
modifications: Description of sequence: Natural enzyme, norbelladine 4'-O-Methyltransferase
notes: natural norbelladine 4′-O-Methyltransferase from Narcissus pseudonarcissus
B2: A53M mutant: Nb4OMT variant with mutation A53M (protein)
chain: MGASIDDYSLVHKNILHSEDLLKYILETSAYPREHEQLKGLREVTEKHEWSSMLVPADEGLFLSMLLKLMNAKRTIEIGVYTGYSLLTTALALPEDGKITAIDVNKSYYEIGLPFIQKAGVEHKINFIESEALPVLDQMLEEMKEEDLYDYAFVDADKSNYANYHERLVKLVRIGGAILYDNTLWYGSVAYPEYPGLHPEEEVARLSFRNLNTFLAADPRVEISQVSIGDGVTICRRLY
modifications: Description of sequence: Improved enzyme variant A53M

Key:
[1] = Differential scanning fluorimetry; format: physicochemical; settings: for Tm: 5 μM protein, SYPRO Orange
Protocol: Purified Nb4OMT variants in the concentration of 5 μM were prepared in 96-well low-profile PCR plates (ABgene, Thermo Scientific). 10×SYPRO® Orange (Molecular Probes) was added into each well and mixed prior to measurement in an RT-PCR machine (LightCycler 480, Roche). The protein melting experiments were carried out with a continuous temperature acquisition mode using 10 acquisitions per 1° C. in each cycle from 20° C. to 95° C. The melting curves of the Nb4OMT variants were monophasic and Tm values were derived using Boltzmann equation.

[2] = Steady state kinetics of purified Nb4OMT variants; format: biochemical; settings: for kcat: 3.5 nM enzyme, 500 μM SAM, 37° C., PBS pH 7.5; for Km: calculated by dividing kcat by kcat/Km
Protocol: Reactions for kinetics measurements were performed in triplicate for all enzyme variants. For each variant 1.5 ml reactions containing 3.5 nM of enzyme, 500 μM SAM, 2 mM CaCl2), and 15.625, 31.25, 62.5, 125, 250, or 500 μM norbelladine in PBS pH 7.5 were incubated at 37° C. for 4 hours. Every hour a 200 μl aliquot of each reaction was quenched by pipetting it into a 1.5 ml microcentrifuge tube with 20 μl of 2M HCl. The concentration of 4′-O-Methylnorbelladine was then determined using HPLC as described.
Kinetic data were fit in KinTek Explorer simulation and data fitting software v11 (Roy, 2018). The following minimal model was used as an input. Each line represents a step in the model and the forward reaction goes from left to right while the reverse reaction goes from right to left as written. • (1) E+S=ES • (2) ES=EP • (3) EP=E+P • (4) S=P2
3.5 nM enzyme and 15.625, 31.25, 62.5, 125, 250, and 500 M substrate. The output observable was defined as EP+P. Substrate oxidation was modeled in step (4) as irreversible with a best fit value from globally fitting data from all variants to derive k4=0.00547 min^−1.To get kout/Km and kcat: k−1, k−2, and k−3 were locked at 0 min-1 (irreversible reactions). k+3 was locked at 10,000 min-1 as to not limit the rate of turnover. k+1 and k+2 were used as variable parameters in the fitting. Under these conditions, k+2=kcat and k+1=kcat/Km. For estimates of 95% confidence intervals on kinetic parameters, confidence contour analysis was used with the FitSpace function in KinTek Explorer (Bhattacharya, 2015). Confidence contour plots are calculated by systematically varying a single rate constant and holding it fixed at a particular value while refitting the data, allowing other rate constants to float. The goodness of fit was scored by the resulting χ^2 value. The confidence interval is defined based on a threshold in χ^2 calculated from the F-distribution based on the number of data points and number of variable parameters to give the 95% confidence limits. For the data given in FIGS. 20A-20C, this threshold was 0.85 to estimate the upper and lower limits for each parameter. […] We then fit the data for these two variants to the model shown below, accounting for substrate inhibition.
As before, k+1 was allowed to float in the fitting to give kcat/Km, and k−1 was locked at 0 min^−1, k+2 was allowed to float in the fitting to give kcat, and k−2 was locked at 0 min^−1. k+3 was locked at 10,000 min^−1, and k−3 was locked at 0 min^−1. k+4 and k+6 were locked at 100 μM^−1 min^−1, and k−4 and k−6 were allowed to float in the fitting as linked parameters. k+5 was linked to k+1 and k−5 was locked at 0 min^−1. k−7 was locked at 0 min^−1, and k+7 was locked at 0.00547 min^−1.

[3] = HPLC and LC/MS analysis of in vivo Nb4OMT reaction supernatant; format: cell-based, Escherichia coli
Protocol: Assay samples were filtered using a 0.2-um PTFE syringe filter prior to running the HPLC. The measurement of Norbelladine and 4-O'Methyl-norbelladine was performed using a Vanquish HPLC system (Thermo Fisher Scientific) equipped with a BDS Hypersil TM C18 (3.0×150 mm 2, 3 um) (Thermo Fisher Scientific) with detection wavelength 277 nm. The mobile phase consisted of 0.1% formic acid in water or 0.1% formic acid in acetonitrile over the course of 28 minutes under the following conditions: 10% organic (vol/vol) for 2 minutes, 10 to 30% organic (vol/vol) for 13 minutes, 30 to 90% organic (vol/vol) for 0.1 minutes, 90% organic (vol/vol) for 4.9 minutes, 90 to 10% organic (vol/vol) for 1 minute, and 10% organic (vol/vol) for 7 minutes. The flow rate was fixed at 0.8 ml min-1. A standard curve for norbelladine was prepared using synthesized norbelladine (see Chemical synthesis and NMR analysis of norbelladine). A standard curve for 4-O'Methyl-norbelladine was prepared using commercially available 4-O'Methyl-norbelladine.
Cells containing the plasmid expressing each Nb4OMT variant with the P150-RBS (RiboJ) promoter were transformed and plated onto an LB agar plate containing appropriate antibiotics. […]
Samples were analyzed using an Agilent 6530 Q-TOF LC-MS with a dual Agilent Jet Stream electrospray ionization source in positive mode. […]

[4] = Biosensor-linked O-methyltransferase activity assay; format: cell-based, Escherichia coli; settings: single mutational designs; 25, 30, 37 °C; 100 uM, 1 mM norbelladine
Protocol: Nb4OMT was expressed with the P150-RBS (riboJ) promoter-RBS on the pReg-RamR plasmid backbone (no regulator present). Cells were co-transformed with both the 40MT plasmid and the 4NB reporter plasmid and plated on an LB agar plate containing appropriate antibiotics. Three individual colonies from each transformation were picked into LB and grown overnight. Resulting cultures were diluted 50-fold into 1 ml LB medium containing the indicated concentration of norbelladine in a 96-deep-well plate and were grown at the indicated temperature for 24 h. Subsequently, the fluorescence of cultures was measured in the same manner as previously described in Dose-response measurement above.

Molecule	Tm [1] [°C]	kcat [2] [s⁻¹]	Km [2] [µM]	regiospecificity ([3]; 3-OMe-norbelladine identified as minor component)	fluorescent signal relative to the wild-type enzyme [4]	increase in Tm relative to the wild-type enzyme [1] [°C]	increase in keut relative to the wild-type enzyme [2] [fold]	increase of kcal/Km relative to the wild-type enzyme [2]	substrate inhibition ([2]; steady state kinetic data, highest norbelladine concentration)	reduction of 3-O'Methyl-norbelladine off-product ([3]; relative to wild-type Nb4OMT)
B1	52.8	1.22	62	not highly regiospecific						
B2	54.5	>3.17	< 90		significantly above the wild-type enzyme	1.7	> 2.1	about 2 fold	affected by substrate inhibition	about 3 fold
